The values that follow come from publication doi:10.1101/2022.05.06.490861.

Assay [1] concerns the target Arp2/3 complex (bovine (purified from bovine brain)) (UniProt P61157).
The target is the same in assay [2]. This is another data set of the same source.

For the substance “GST-WASH-VCA (from UniProt Q8VDD8 319-475) (domain or fragment)”, the acceleration of debranching of Arp2/3-mediated branches, 0-3 µM VCA in assay [1] is less than 83 fold.
As to “GST-N-WASP-VCA (from UniProt O00401 392-505) (domain or fragment)”, the increase of the detachment rate of SPIN90-Arp2/3-nucleated filaments, 0-1 µM VCA in assay [2] is less than 16 fold.
